In PMC5526462 (Biochemistry, 2017):
Like-named read-outs stand apart in the source and are kept apart here.

T1: Methylobacterium extorquens PqqE (His6-MePqqE) (Methylobacterium extorquens, UniProt P71517 1-384)
T1 sequence (looked up): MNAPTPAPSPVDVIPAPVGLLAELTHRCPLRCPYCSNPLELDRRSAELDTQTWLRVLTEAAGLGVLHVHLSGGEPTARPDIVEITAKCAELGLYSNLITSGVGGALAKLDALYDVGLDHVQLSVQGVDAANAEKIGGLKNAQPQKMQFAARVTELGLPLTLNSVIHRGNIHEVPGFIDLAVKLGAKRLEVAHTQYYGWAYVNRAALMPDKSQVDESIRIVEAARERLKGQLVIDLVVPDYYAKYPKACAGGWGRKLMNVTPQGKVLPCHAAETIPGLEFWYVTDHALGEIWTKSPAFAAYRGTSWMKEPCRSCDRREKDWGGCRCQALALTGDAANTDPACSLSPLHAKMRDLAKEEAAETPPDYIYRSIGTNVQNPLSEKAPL

B1: MePqqD + MePqqA binary complex (complex, Methylobacterium extorquens)
chain: MEPTAFSGSDVPRLPRGVRLRFDEVRNKHVLLAPERTFDLDDNAVAVLKLVDGRNTVSQIAQILGQTYDADPAIIEADILPMLAGLAQKRVLER
peptide: KWAAPIVSEISVGMEVTSYESAEIDTFN
B2: Methylobacterium extorquens PqqD (MePqqD), truncation of the natural MePqqCD fusion (domain or fragment)
chain: B1 chain

Assays:
[1] = target: PqqD (Methylorubrum extorquens) (UniProt Q49148); conditions: cited from earlier work
[2] = target: PqqE (Methylorubrum extorquens) (UniProt B7KXC6); conditions: cited from earlier work
[3] = target: PqqE (Methylorubrum extorquens) (UniProt B7KXC6); conditions: cited from earlier work; remark: listed apart in the source
[4] = target: B2; assay: NMR titration
[5] = target: T1, Methylobacterium extorquens PqqE …; assay: NMR titration

Sequence of PqqD (Methylorubrum extorquens) (Q49148 whole entry): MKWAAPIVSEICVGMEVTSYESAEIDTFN

## PqqA (from UniProt Q49148)
[1]
  Kd: 0.2 µM

## PqqD (from UniProt Q49148)
[2]
  Kd: 12 µM

## PqqD-PqqA complex (from UniProt Q49148)
[3]
  Kd: 5 µM

## KWAAPIVSEISVGMEVTSYESAEIDTFN [MePqqA precursor peptide (without the N-terminal methionine, cysteine 11 changed to serine)]
[4]
  binding result: binds

## B1
[5]
  binding result: binds

## B2
[5]
  binding result: binds
